B1: SPIN (Staphylococcal Peroxidase INhibitor) from S. aureus strain Newman (natural protein)
chain: KVYSQNGLVLHDDANFLEHELSYIDVLLDKNADQATKDNLRSYFADKGLHSIKDIINKAKQDGFDVSKYEHVK

Target: Native human myeloperoxidase (MPO) isolated from purulent sputum (human) (UniProt P05164)
Experiment: SPR

Sequence of UniProt P05164 (P05164 165-745): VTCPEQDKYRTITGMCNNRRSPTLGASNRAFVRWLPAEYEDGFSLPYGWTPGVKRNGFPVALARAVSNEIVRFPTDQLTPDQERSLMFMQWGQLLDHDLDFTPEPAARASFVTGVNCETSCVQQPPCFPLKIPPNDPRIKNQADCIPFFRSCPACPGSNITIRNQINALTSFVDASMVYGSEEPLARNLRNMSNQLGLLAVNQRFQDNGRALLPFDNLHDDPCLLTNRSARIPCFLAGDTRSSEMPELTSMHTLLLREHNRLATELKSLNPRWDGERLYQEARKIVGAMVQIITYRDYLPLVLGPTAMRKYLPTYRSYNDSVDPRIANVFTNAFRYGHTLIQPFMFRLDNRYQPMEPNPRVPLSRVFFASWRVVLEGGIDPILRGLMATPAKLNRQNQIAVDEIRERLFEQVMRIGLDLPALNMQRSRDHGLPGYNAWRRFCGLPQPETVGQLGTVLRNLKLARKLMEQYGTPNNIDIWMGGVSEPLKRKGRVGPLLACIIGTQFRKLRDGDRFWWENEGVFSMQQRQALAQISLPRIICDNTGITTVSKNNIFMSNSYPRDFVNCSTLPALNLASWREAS

Molecule	Kd [nM]	koff [s⁻¹]	kon [M⁻¹ s⁻¹]
SPIN-agnetis (SPIN homolog from S. agnetis) (natural protein)	41.8	0.00236	56400
SPIN-delphini (SPIN from Staphylococcus delphini) (natural protein)	310	0.00334	10800
SPIN-intermedius (SPIN homolog from S. intermedius) (natural protein)	984	0.00334	3500
SPIN-schleiferi (SPIN homolog from S. schleiferi) (natural protein)	230	0.00252	11200
B1	15.9	0.00316	201000

— PMC5899673
